The text below walks through data of PMC9212699.

For assay [1], the target named is SARS-CoV-2 Omicron BA.3 RBD protein with His-tag, spike residues 319-541 (SARS-CoV-2). As to the kind of experiment: SPR.
Assay [2] addresses BA.2 RBD with the S408R mutation (SARS-CoV-2). As to the kind of experiment: SPR.

Chain of Human ACE2 protein, residues 19-615 (produced by HEK293F cells, used for SPR) (Q9BYF1 19-615): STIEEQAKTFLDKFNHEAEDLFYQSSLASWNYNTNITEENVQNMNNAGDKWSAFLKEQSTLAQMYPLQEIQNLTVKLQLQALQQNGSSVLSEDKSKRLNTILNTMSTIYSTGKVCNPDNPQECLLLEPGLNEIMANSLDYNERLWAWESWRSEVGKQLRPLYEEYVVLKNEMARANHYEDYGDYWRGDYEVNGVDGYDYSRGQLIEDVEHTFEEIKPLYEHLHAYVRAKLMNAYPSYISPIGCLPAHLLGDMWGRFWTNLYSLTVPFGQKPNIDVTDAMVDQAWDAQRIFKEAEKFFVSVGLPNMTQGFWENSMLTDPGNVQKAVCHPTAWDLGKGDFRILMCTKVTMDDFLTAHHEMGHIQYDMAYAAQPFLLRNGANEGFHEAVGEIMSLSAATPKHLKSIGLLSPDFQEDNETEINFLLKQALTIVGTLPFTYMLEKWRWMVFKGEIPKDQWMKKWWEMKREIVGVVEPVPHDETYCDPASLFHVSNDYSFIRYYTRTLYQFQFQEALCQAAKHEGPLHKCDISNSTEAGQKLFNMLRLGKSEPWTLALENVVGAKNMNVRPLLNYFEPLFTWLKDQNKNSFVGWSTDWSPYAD

Consider “Human ACE2 protein, residues 19-615 (produced by HEK293F cells, used for SPR) (from UniProt Q9BYF1-1 19-615) (receptor)”, for which the values for the Kd in assay [1] and in assay [2] were 22.1 nM and 16.4 nM, respectively.
